According to patent publication US20210147523A1 (TEIJIN PHARMA, published 2021):

Columns and labels:
human SPNS2 W259A mutant = target: T1, human SPNS2 W259A mutant (human, UniProt Q8IVW8 1-549); experiment: flow cytometry
T1 sequence: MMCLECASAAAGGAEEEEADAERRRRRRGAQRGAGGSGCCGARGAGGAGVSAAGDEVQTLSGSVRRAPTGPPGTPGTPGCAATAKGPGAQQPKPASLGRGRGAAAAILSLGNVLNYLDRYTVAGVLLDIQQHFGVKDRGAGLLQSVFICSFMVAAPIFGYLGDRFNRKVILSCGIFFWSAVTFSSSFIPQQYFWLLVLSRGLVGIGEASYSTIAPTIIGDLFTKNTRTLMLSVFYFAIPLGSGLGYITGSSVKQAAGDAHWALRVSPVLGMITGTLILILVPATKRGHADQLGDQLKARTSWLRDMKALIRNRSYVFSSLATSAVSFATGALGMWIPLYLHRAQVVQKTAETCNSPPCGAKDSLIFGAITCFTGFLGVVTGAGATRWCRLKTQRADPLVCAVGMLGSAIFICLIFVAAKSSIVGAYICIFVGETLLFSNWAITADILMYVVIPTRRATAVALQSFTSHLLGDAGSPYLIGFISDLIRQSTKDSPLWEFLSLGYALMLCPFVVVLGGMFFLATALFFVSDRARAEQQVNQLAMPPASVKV

human SPNS2 F133A mutant = target: T2, human SPNS2 F133A mutant (human, UniProt Q8IVW8 1-549); experiment: flow cytometry
T2 sequence: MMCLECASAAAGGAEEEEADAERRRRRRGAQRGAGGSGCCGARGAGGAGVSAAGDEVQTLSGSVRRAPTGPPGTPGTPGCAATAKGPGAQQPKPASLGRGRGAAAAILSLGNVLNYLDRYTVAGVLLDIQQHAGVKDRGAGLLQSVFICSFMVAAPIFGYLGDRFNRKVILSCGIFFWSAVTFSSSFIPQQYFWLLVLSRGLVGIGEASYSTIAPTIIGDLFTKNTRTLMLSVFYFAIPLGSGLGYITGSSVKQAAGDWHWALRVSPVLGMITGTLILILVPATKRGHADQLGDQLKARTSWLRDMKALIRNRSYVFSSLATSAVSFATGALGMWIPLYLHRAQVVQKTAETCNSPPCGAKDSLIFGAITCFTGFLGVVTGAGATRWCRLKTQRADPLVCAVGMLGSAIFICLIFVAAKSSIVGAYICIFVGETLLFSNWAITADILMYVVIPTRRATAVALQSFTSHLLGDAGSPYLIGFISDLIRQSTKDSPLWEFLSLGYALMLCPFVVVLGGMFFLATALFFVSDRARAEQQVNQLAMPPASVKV

human SPNS2 K136A mutant = target: T3, human SPNS2 K136A mutant (human, UniProt Q8IVW8 1-549); experiment: flow cytometry
T3 sequence: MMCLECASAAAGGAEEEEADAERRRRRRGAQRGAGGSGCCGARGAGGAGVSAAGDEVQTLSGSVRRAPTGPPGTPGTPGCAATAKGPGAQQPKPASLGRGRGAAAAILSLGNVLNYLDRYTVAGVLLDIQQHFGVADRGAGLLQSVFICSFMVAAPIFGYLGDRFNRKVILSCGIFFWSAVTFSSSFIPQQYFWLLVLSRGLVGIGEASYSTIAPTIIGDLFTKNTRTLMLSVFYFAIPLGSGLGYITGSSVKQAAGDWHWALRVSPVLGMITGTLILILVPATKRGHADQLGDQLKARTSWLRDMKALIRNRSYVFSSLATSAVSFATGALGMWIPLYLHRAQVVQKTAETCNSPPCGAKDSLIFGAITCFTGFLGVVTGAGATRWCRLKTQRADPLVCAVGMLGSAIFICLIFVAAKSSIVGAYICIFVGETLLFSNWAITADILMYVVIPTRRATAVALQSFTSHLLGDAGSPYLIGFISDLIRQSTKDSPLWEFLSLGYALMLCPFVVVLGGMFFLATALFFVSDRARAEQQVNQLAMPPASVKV

human SPNS2 R200A mutant = target: T4, human SPNS2 R200A mutant (human, UniProt Q8IVW8 1-549); experiment: flow cytometry
T4 sequence: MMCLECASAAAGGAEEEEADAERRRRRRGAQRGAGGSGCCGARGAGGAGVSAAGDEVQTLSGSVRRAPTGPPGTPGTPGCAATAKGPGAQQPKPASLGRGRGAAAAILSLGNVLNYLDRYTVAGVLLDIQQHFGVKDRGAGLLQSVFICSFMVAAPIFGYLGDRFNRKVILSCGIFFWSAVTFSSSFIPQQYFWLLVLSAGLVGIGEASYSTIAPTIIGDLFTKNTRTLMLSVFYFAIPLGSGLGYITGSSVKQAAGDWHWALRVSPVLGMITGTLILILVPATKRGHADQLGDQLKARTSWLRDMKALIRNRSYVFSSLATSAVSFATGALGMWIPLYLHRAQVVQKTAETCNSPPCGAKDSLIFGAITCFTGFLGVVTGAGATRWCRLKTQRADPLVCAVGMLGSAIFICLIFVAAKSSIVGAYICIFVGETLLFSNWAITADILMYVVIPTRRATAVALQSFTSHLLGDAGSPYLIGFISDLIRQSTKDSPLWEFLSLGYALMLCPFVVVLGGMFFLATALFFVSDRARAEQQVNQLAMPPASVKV

mouse SPNS2 = target: T5, mouse SPNS2 (mouse, UniProt Q91VM4 1-549); experiment: cell-based or functional assay
T5 sequence: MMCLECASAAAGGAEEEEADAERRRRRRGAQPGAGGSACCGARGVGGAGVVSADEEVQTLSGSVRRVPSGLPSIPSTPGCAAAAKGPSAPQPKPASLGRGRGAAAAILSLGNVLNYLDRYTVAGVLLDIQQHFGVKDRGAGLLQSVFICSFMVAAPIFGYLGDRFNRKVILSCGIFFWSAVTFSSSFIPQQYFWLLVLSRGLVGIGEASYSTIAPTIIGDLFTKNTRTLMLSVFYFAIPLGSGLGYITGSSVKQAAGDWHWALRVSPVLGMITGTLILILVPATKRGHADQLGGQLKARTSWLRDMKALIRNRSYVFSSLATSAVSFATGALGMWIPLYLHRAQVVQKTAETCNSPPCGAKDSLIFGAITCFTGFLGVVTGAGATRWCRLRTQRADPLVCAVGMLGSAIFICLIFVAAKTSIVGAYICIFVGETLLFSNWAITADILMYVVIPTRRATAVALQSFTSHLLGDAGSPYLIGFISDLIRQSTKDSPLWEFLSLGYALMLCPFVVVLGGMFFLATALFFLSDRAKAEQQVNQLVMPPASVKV

B1: 65-0810G (antibody, IgG2b, V domains shown)
VH: EVHLVESGGGLVQPGRSMKLSCTASGFTFNNYYMAWVRQAPTKGLEWVASISTGGGYTYYRDSVKGRFTISRDNTGNTLYLQMDSLRSEDTATYYCARCWELPYWGQGVMVTVSS
VL: QFVLTQPNSVSTNLGSTVKLSCRRSSGNIGNNYVNWYRQHEGRSPTTMIYRDDTRPDGVPNRFSGSIDRSSNSALLTINNVRPEDEAYYFCQSYSGSIYIFGGGTKLTVL
- binding ratio vs native type (human SPNS2 W259A mutant): < 0.5 ratio
- binding ratio vs native type (human SPNS2 F133A mutant): < 0.5 ratio
- binding ratio vs native type (human SPNS2 K136A mutant): < 0.5 ratio
- binding ratio vs native type (human SPNS2 R200A mutant): < 0.5 ratio
- pIC50, S1P transport inhibition (LC-MS/MS of S1P) (mouse SPNS2): 7.8 pIC50 (M)

B2: 49-0703G (antibody, IgG2b, V domains shown)
VH: EVQLVESGGGLVQPGRSMKLSCAASGFTFSNHYMAWVRQAPTKGLEWVASISTGGGNTYYRDSVKGRFTISRDNAKSTLYLQMDSLRSEDTATYYCARQDYSNYMGGFAYWGQGTLVTVSS
VL: QFVLTQPNSVSTNLGSTVKLSCKRSTGNIGNNYVNWYQQYEGRSPTTMIYRDDERPDGVPDRFSGSIDRSSNSALLTINNVQTEDEADYFCQSFSNGMFIFAGGTQLTVL
- binding ratio vs native type (human SPNS2 W259A mutant): < 0.5 ratio
- binding ratio vs native type (human SPNS2 F133A mutant): < 0.5 ratio
- binding ratio vs native type (human SPNS2 K136A mutant): < 0.5 ratio
- binding ratio vs native type (human SPNS2 R200A mutant): < 0.5 ratio
- pIC50, S1P transport inhibition (LC-MS/MS of S1P) (mouse SPNS2): 7.6 pIC50 (M)

B3: 33-0503E (antibody, IgG2b, V domains shown)
VH: EVQLVESGGGLVRPGGSMKLSCGASGFIFDNYYMTWVRQAPTKGLEWVASISSSGGNTYYRDSVRGRFTISRDNAGNTLSLQMGSLRAEDTATYHCAKEGYRGRYFDYWGQGVMVTVSS
VL: QVVLTQPNSVSTNLGSTVKLSCKRTTGNIGSNYVNWYQQHEGRSPTTMIYRDDERPDGVPDRFSGSIDRSSNSALLTINNVQTEDEAEYFCQSYSSGIIFGGGTKLTVL
- binding ratio vs native type (human SPNS2 W259A mutant): < 0.5 ratio
- binding ratio vs native type (human SPNS2 K136A mutant): < 0.5 ratio
- binding ratio vs native type (human SPNS2 R200A mutant): < 0.5 ratio
- pIC50, S1P transport inhibition (LC-MS/MS of S1P) (mouse SPNS2): 7.7 pIC50 (M)
